Experimental data from the supplement of paper PMC10065799, “High-throughput profiling of sequence recognition by tyrosine kinases and SH2 domains using bacterial peptide display” (eLife, 2023).

Legend:
c-Src SH2 = assay: SH2 binding enrichment of the phosphorylated peptide, bacterial display (enrichment ratio); higher = better substrate or ligand; peptides without Tyr show the background
SHP2-C SH2 = assay: as above
Grb2 SH2 = Grb2 SH2 (UniProt P62993); assay: as above
Fer (mouse) = assay: phosphorylation enrichment, bacterial display (enrichment ratio); higher = better substrate or ligand; peptides without Tyr show the background
Jak2 = Jak2 (UniProt O60674); assay: as above
Fyn = Fyn (UniProt P06241); assay: as above
FGFR3 = FGFR3 (UniProt P22607); assay: as above
MERTK = MERTK (UniProt Q12866); assay: as above
AncSZ = assay: as above
Fes = Fes (UniProt P07332); assay: as above
c-Src = assay: as above
Hck = Hck (UniProt P08631); assay: as above
EPHB1 = EPHB1 (UniProt P54762); assay: as above
c-Abl (mouse) = assay: as above
FGFR1 = FGFR1 (UniProt P11362); assay: as above
EPHB2 = EPHB2 (UniProt P29323); assay: as above
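For SH2 binding enrichment of the phosphorylated peptide, bacterial display in this document: peptide library displayed on the E. coli surface as eCPX fusions, selected cells deep-sequenced, score is each peptide's frequency after selection divided by its frequency in the input.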
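For phosphorylation enrichment, bacterial display in this document: 11-residue human phosphosite peptides and single-mutation variants displayed on the E. coli surface, counted by deep sequencing, each peptide's frequency after selection divided by its frequency in the unselected input library; frequency after pTyr selection over input frequency; kinase dosed for 20-30% of maximal phosphorylation in three min.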

Sequence of Fyn (P06241 whole entry, looked up): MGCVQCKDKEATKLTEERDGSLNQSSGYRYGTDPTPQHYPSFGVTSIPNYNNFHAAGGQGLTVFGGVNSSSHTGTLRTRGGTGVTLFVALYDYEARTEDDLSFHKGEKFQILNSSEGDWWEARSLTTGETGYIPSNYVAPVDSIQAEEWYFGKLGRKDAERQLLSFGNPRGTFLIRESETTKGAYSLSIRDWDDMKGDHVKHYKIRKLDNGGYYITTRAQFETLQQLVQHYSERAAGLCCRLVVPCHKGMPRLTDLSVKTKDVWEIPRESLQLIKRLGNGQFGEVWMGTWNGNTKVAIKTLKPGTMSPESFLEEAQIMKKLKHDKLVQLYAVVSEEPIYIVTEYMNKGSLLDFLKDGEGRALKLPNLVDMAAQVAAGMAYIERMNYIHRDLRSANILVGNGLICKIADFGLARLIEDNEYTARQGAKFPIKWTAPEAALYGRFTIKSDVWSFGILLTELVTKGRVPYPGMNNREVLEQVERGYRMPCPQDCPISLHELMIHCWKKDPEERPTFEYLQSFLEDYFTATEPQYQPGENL
Sequence of EPHB2 (P29323 whole entry, looked up, the tested form may be a part): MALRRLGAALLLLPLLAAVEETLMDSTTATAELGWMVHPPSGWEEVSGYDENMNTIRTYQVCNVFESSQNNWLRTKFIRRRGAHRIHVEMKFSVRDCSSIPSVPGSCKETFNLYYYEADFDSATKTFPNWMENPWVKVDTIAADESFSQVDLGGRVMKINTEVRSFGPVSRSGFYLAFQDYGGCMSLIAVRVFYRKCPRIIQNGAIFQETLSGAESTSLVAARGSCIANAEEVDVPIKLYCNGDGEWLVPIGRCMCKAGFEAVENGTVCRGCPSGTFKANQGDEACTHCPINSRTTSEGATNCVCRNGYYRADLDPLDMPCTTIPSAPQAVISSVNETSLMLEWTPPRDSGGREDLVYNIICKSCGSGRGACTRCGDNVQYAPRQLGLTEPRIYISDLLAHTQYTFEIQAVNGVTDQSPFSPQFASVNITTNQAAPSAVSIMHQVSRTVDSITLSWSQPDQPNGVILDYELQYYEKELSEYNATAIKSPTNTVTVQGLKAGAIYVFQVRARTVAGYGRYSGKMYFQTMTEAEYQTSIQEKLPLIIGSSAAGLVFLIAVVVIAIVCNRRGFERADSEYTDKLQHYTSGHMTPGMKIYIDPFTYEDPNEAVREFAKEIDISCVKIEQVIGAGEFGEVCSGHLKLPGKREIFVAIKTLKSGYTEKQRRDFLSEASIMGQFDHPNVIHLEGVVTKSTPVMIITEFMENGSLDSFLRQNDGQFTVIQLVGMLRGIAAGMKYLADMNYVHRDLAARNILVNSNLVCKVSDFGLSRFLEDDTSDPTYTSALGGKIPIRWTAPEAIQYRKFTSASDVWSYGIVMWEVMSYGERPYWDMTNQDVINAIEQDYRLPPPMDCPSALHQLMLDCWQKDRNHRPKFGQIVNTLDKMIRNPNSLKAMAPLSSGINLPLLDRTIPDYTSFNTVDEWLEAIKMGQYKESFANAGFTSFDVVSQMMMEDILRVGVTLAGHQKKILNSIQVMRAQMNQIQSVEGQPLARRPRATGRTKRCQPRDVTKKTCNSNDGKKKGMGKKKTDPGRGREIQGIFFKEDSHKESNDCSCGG
Sequence of Hck (P08631 whole entry, looked up): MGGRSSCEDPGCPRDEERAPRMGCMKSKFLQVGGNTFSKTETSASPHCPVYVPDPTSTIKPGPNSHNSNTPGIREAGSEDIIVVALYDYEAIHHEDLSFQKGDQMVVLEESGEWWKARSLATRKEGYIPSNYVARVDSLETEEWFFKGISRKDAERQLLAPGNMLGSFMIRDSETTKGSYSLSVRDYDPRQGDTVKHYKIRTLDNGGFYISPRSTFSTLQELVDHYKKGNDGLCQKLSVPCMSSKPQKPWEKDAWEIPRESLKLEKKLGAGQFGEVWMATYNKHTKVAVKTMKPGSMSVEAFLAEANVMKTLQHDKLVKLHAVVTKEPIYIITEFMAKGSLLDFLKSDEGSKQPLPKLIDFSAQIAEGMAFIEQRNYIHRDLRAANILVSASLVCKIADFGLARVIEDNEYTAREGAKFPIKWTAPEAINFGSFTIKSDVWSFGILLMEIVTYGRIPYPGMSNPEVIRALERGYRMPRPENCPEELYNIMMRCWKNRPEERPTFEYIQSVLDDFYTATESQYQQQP
Sequence of FGFR1 (P11362 whole entry, looked up): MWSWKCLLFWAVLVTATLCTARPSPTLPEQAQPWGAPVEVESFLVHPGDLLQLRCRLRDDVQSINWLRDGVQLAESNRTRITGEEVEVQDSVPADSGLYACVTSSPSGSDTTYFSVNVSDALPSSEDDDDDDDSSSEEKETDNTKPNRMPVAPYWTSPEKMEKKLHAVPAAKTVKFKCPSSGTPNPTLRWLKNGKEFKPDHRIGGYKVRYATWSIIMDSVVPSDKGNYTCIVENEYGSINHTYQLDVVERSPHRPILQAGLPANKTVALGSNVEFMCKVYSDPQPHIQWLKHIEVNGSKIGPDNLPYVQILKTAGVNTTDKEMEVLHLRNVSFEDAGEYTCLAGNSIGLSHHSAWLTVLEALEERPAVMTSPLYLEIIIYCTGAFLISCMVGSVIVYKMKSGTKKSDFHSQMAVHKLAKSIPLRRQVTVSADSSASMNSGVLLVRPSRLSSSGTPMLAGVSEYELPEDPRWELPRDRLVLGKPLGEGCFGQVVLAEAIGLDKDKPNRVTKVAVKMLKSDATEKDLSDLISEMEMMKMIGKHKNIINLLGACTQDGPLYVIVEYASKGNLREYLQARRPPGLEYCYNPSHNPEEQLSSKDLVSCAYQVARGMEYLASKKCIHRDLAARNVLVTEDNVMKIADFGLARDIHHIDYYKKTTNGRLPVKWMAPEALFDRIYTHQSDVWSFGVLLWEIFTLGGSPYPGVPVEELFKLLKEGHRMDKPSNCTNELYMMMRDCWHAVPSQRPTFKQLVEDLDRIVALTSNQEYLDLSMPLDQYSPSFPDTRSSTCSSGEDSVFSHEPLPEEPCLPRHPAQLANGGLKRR
Sequence of FGFR3 (P22607 whole entry, looked up): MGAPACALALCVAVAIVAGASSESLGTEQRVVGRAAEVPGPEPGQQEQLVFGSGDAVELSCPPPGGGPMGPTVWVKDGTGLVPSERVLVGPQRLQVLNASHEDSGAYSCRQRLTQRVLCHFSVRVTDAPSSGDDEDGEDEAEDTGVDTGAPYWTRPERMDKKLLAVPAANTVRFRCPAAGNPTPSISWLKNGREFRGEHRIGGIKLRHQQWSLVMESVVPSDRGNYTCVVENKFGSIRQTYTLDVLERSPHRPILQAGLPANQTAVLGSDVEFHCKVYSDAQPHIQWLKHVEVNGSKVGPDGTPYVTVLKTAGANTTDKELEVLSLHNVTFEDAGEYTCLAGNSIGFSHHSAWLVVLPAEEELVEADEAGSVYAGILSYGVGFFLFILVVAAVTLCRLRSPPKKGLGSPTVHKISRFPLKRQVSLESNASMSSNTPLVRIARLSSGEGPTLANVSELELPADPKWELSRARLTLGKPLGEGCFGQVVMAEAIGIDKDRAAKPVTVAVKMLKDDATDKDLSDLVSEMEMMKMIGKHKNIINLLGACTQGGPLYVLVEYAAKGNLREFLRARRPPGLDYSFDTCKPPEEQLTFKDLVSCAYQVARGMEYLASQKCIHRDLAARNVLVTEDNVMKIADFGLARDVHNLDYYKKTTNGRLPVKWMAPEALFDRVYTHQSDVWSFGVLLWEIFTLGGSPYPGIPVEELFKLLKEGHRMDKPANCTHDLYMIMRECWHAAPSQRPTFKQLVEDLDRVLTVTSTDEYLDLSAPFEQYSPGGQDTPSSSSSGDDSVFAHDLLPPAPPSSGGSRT
Sequence of Fes (P07332 whole entry, looked up): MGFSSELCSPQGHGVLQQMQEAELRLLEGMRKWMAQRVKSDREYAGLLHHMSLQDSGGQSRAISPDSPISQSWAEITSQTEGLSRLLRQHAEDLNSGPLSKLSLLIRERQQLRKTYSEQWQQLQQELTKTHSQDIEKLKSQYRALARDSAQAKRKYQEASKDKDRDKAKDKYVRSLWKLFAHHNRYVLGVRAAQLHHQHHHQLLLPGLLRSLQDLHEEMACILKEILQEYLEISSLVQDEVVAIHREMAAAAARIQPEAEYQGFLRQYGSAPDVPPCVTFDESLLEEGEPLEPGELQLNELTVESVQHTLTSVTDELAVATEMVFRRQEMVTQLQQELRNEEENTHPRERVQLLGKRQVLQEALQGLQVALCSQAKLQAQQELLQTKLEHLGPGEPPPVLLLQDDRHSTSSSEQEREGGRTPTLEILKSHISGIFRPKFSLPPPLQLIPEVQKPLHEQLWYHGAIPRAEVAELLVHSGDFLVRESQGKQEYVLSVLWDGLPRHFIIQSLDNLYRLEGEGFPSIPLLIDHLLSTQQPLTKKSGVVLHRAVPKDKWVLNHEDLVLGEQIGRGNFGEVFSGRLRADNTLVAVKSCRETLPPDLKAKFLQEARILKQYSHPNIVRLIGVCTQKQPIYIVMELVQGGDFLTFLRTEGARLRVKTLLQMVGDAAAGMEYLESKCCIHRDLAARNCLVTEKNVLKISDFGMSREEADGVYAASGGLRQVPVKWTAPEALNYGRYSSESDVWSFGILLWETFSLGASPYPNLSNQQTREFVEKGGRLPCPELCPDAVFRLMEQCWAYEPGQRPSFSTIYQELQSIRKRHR

SH2 binding enrichment (c-Src SH2) | SH2 binding enrichment (SHP2-C SH2) | SH2 binding enrichment (Grb2 SH2) | Sequence | phosphorylation enrichment (Fer (mouse)) | phosphorylation enrichment (Jak2) | phosphorylation enrichment (Fyn) | phosphorylation enrichment (FGFR3) | phosphorylation enrichment (MERTK) | phosphorylation enrichment (AncSZ) | phosphorylation enrichment (Fes) | phosphorylation enrichment (c-Src) | phosphorylation enrichment (Hck) | phosphorylation enrichment (EPHB1) | phosphorylation enrichment (c-Abl (mouse)) | phosphorylation enrichment (FGFR1) | phosphorylation enrichment (EPHB2)
0.373 | 0.446 | 1.36 | QGIIIYKAAFF [SLC25A4_Y187_R188K_YF] | 0.721 | 1.05 | 0.569 | 0.852 | 0.439 | 1.5 | 1.36 | 0.917 | 0.526 | 1.21 | 1.1 | 0.798 | 0.723
1.04 | 1.53 | 1.51 | FIGCIYLYLTK [GARS1_Y414_R412C] | 0.486 | 1.28 | 0.393 | 0.79 | 0.435 | 1.02 | 0.96 | 0.704 | 0.373 | 0.614 | 0.746 | 0.535 | 0.451
0.515 | 0.799 | 1.03 | KGEDFYCVTFH [FHL1_Y149_C153Y_YF] | 1.54 | 1.21 | 1.78 | 1.12 | 2.82 | 1.48 | 1.48 | 1.47 | 1.19 | 0.825 | 0.895 | 0.952 | 0.891
0.402 | 0.566 | 0.723 | GADDSYFTARS [ZAP70_Y492_YF] | 0.417 | 0.577 | 0.457 | 0.51 | 0.406 | 0.657 | 0.79 | 0.417 | 0.444 | 0.299 | 0.401 | 0.557 | 0.44
0.538 | 0.66 | 0.709 | APAHKYHGGGG [HBD_Y146_L142P] | 0.329 | 0.35 | 0.328 | 0.423 | 0.549 | 0.778 | 0.502 | 0.537 | 0.294 | 0.288 | 0.616 | 0.37 | 0.419
0.417 | 0.71 | 1.01 | SHSMKYFDTAV [HLA-C_Y31_R30K] | 0.357 | 0.785 | 0.356 | 0.432 | 0.436 | 0.579 | 0.572 | 0.395 | 0.392 | 0.36 | 0.469 | 0.396 | 0.389
0.59 | 0.885 | 0.683 | LSSLAYSGKDA [FXN_Y205] | 0.615 | 0.75 | 0.809 | 0.671 | 0.307 | 0.859 | 0.703 | 0.47 | 0.579 | 0.819 | 0.85 | 0.66 | 0.702
1.06 | 1.12 | 1.17 | NKKYHYRELPV [ERN2_Y860_H858Y] | 0.32 | 0.379 | 0.296 | 0.345 | 0.28 | 0.456 | 0.502 | 0.32 | 0.29 | 0.361 | 0.515 | 0.316 | 0.278
0.471 | 0.549 | 0.788 | GQKVAYGGTED [ALDH3A1_Y305_G309E] | 0.344 | 0.791 | 0.438 | 0.63 | 0.417 | 0.747 | 0.939 | 0.412 | 0.402 | 0.424 | 0.577 | 0.412 | 0.471
0.434 | 0.576 | 0.708 | YPIDHYLGKEM [G6PD_Y202_R198P] | 0.415 | 0.806 | 0.48 | 0.577 | 0.412 | 0.771 | 0.891 | 0.505 | 0.492 | 0.405 | 0.584 | 0.613 | 0.54
4.38 | 0.71 | 0.802 | YLELNYKEDEY [MME_Y502] | 0.55 | 1.3 | 0.63 | 3.65 | 0.923 | 1.78 | 1.43 | 0.88 | 1.21 | 0.786 | 0.929 | 4.36 | 0.478
1.72 | 1.85 | 1.94 | KACKHYLTKRT [ZBTB5_Y118_T121K] | 0.668 | 1.3 | 0.595 | 1.19 | 0.605 | 0.667 | 1.17 | 0.581 | 0.582 | 0.493 | 1.05 | 0.629 | 0.662
22.5 | 0.604 | 0.801 | VVHGSYDEIEG [SEC24A_Y263_S261G] | 0.594 | 0.887 | 0.395 | 0.591 | 0.431 | 0.914 | 0.9 | 0.536 | 0.469 | 0.424 | 1.07 | 0.395 | 0.387
3.31 | 0.648 | 0.765 | VPANRYDLLRL [FARSB_Y72_C76R] | 0.452 | 0.54 | 0.39 | 0.58 | 0.451 | 0.519 | 0.65 | 0.393 | 0.429 | 0.424 | 0.498 | 0.414 | 0.403
0.762 | 0.742 | 0.845 | KLIMEYLPYGS [JAK2_Y931] | 0.405 | 0.945 | 0.518 | 0.68 | 0.395 | 0.989 | 1.02 | 0.564 | 0.51 | 0.493 | 0.62 | 0.543 | 0.632
0.865 | 0.832 | 1.12 | YMKEPYIQSRF [HIPK4_Y175_V171M] | 0.488 | 0.855 | 0.461 | 0.623 | 0.659 | 0.622 | 0.703 | 0.563 | 0.36 | 0.364 | 0.632 | 0.611 | 0.392

SH2 binding enrichment (c-Src SH2) | SH2 binding enrichment (SHP2-C SH2) | SH2 binding enrichment (Grb2 SH2) | Sequence | phosphorylation enrichment (Fer (mouse)) | phosphorylation enrichment (Jak2) | phosphorylation enrichment (Fyn) | phosphorylation enrichment (FGFR3) | phosphorylation enrichment (MERTK) | phosphorylation enrichment (AncSZ) | phosphorylation enrichment (Fes) | phosphorylation enrichment (c-Src) | phosphorylation enrichment (Hck) | phosphorylation enrichment (EPHB1) | phosphorylation enrichment (c-Abl (mouse)) | phosphorylation enrichment (FGFR1) | phosphorylation enrichment (EPHB2)
0.887 | 0.993 | 0.736 | QLPRGYISIPV [BAG3_Y205] | 0.642 | 0.881 | 0.839 | 0.744 | 0.612 | 0.789 | 0.974 | 0.592 | 0.718 | 0.698 | 0.867 | 0.482 | 0.722
0.982 | 1.51 | 1.13 | GKMSSYAFFVQ [HMGB1_Y16] | 0.474 | 1.01 | 0.505 | 0.741 | 1.29 | 1.01 | 1.14 | 0.562 | 0.513 | 0.809 | 0.849 | 0.603 | 0.711
1.84 | 0.739 | 1.11 | FKNGDYSEVMK [LCT_Y1638_N1639S] | 0.362 | 0.686 | 0.42 | 0.468 | 0.433 | 0.697 | 0.709 | 0.574 | 0.413 | 0.859 | 0.429 | 0.57 | 0.877
0.623 | 1.09 | 1.08 | LLQEWYMIISR [HUWE1_Y4066_R4063Q] | 0.821 | 3.08 | 0.766 | 2.45 | 1.1 | 2.05 | 2.39 | 1.25 | 1.1 | 2.11 | 1.81 | 1.04 | 0.921
0.419 | 0.548 | 0.878 | FEEDSYVTRSQ [RET_Y905_K907T_YF] | 0.529 | 1.27 | 0.5 | 1.08 | 0.47 | 1.18 | 1.33 | 0.617 | 0.531 | 0.651 | 0.912 | 0.452 | 0.829
0.489 | 0.43 | 0.823 | PKGIGYGQGAG [CSRP3_Y73] | 0.492 | 0.474 | 0.525 | 0.513 | 0.462 | 0.458 | 0.721 | 0.308 | 0.4 | 0.396 | 0.422 | 0.731 | 0.469
1.12 | 0.838 | 0.899 | VTAALYGRLYE [BTD_Y536] | 1.31 | 0.904 | 5.26 | 0.724 | 2.68 | 0.883 | 1.04 | 4.81 | 5.15 | 1.06 | 0.888 | 0.498 | 1.43
0.591 | 0.757 | 0.667 | TVFSDYLHPQF [CCPG1_Y569_YF] | 0.43 | 1.83 | 0.69 | 0.938 | 0.805 | 4.45 | 1.22 | 1.07 | 0.643 | 1.02 | 1.53 | 1.03 | 0.573
0.56 | 0.556 | 0.995 | VHNLDYFKMTT [FGFR3_Y647_K650M_YF] | 0.325 | 7.7 | 0.33 | 4.21 | 0.356 | 1.06 | 0.653 | 0.397 | 0.394 | 0.456 | 0.521 | 7 | 0.383
0.608 | 0.842 | 0.931 | AQAGEYGAEAL [HBA1_Y25_H21Q] | 0.465 | 0.767 | 0.507 | 0.629 | 0.327 | 0.965 | 0.96 | 0.33 | 0.514 | 0.609 | 0.491 | 0.557 | 0.545
0.807 | 0.67 | 4.11 | CLNAIYQNNLT [GSR_Y158_R153C] | 3.44 | 0.744 | 0.995 | 0.722 | 0.563 | 0.991 | 0.996 | 1.41 | 1.53 | 0.622 | 0.759 | 0.479 | 0.636
0.574 | 0.582 | 0.762 | TINPIYEHVGY [CHN1_Y143] | 22.4 | 0.578 | 14.7 | 1.06 | 12.2 | 1.15 | 8.63 | 8.55 | 13.6 | 25.6 | 5.77 | 1.01 | 26.2
0.48 | 0.634 | 0.756 | SMAKYYASEIA [ACADSB_Y373] | 0.495 | 0.599 | 0.404 | 0.478 | 0.46 | 0.601 | 0.701 | 0.452 | 0.473 | 0.459 | 0.682 | 0.426 | 0.433
0.638 | 0.689 | 0.902 | LYNQDYPIHCV [GATM_Y227_S231C] | 0.632 | 0.754 | 0.639 | 1.64 | 0.463 | 0.811 | 0.954 | 0.558 | 0.767 | 0.614 | 0.625 | 2.66 | 0.592
0.498 | 0.668 | 0.869 | DTKDDYNALSV [IL17RB_Y457] | 0.483 | 0.916 | 0.599 | 0.718 | 0.426 | 1.08 | 1.07 | 0.443 | 0.546 | 0.495 | 0.679 | 0.544 | 0.625
1.21 | 1.99 | 2.06 | LVLIKYLPEWT [PSEN1_Y240_F237L] | 0.597 | 1.44 | 0.501 | 1.08 | 0.56 | 1.19 | 1.43 | 0.463 | 0.569 | 0.827 | 1.07 | 0.547 | 0.611

Sequence | SH2 binding enrichment (c-Src SH2) | SH2 binding enrichment (SHP2-C SH2) | SH2 binding enrichment (Grb2 SH2) | phosphorylation enrichment (Fer (mouse)) | phosphorylation enrichment (Jak2) | phosphorylation enrichment (Fyn) | phosphorylation enrichment (FGFR3) | phosphorylation enrichment (MERTK) | phosphorylation enrichment (AncSZ) | phosphorylation enrichment (Fes) | phosphorylation enrichment (c-Src) | phosphorylation enrichment (Hck) | phosphorylation enrichment (EPHB1) | phosphorylation enrichment (c-Abl (mouse)) | phosphorylation enrichment (FGFR1) | phosphorylation enrichment (EPHB2)
RIFDYYSARKT [STOX1_Y858_A863T] | 0.534 | 0.849 | 0.701 | 0.441 | 1.18 | 0.402 | 0.48 | 1.37 | 0.531 | 0.665 | 0.473 | 0.982 | 0.521 | 0.259 | 0.503 | 0.439
